Source: article PMC4570232 (Cell reports, 2015)

Tests used:
[1] = molecular target: FLAG-tagged Ragulator (UniProt Q6IAA8 1-161; Q9UHA4 1-124; Q9Y2Q5 1-125; O43504 1-91; Q0VGL1 1-99, G2A); assay: pull-down
[2] = molecular target: HA-GST-tagged Ragulator (UniProt Q9Y2Q5 1-125; Q9UHA4 1-124; Q6IAA8 1-161; O43504 1-91; Q0VGL1 1-99, G2A); assay: pull-down

binding result [1]: binds
binding result [2]: binds
B1: FLAG-tagged c17orf59 (natural protein)
chain: MESSRGRPGPETDLLAVAEHQALVFGGGPGRTSSEPPAGLRVSGEEETENVGGANRHPRTSPKTSSCGVVHRPEREALENEPGPQGTLSGAGSRRGAPGAEHEPSLSSRHKNPAPPEGKPSSGRDCRRGGPGGGMDVEQQEEEDNDEEAAAGSRAGRSFSSRLQDSRSLDGLSEACGGAGSSGSAESGAGGGRRATISSPLELEGTVSRHGDLTHFVANNLQLKIRLSGAPPPPPSAPARPCPAPAPTPTPAIPPIDPEVLRDLERLSRELGGRVDRLLRGLGGAVQELTALSVGCIQTYRDAVDSLGEAVDMSIKGMYTLLARCEELERALQPVQGLARQVRDIRRTLEVLEALCK
